# Laboratory results reported in the Immune Epitope Database (IEDB).
# Columns and labels:
# [1] = target: HLA-B*15:03; test: IEDB peptide-MHC binding, purified MHC/competitive/radioactivity; filed as Kd, often an IC50 or EC50 that approximates it; ≥ and ≤ were set here for values at or beyond the usual limits of such assays
# [2] = target: HLA-B*58:01; test: as above; details: source organism: Dengue virus 3 Martinique/1243/1999
# [3] = target: HLA-A*02:01; test: as above
# [4] = target: HLA-A*02:02; test: as above
# [5] = target: HLA-A*02:03; test: as above
# [6] = target: HLA-A*02:06; test: as above
# [7] = target: HLA-A*68:02; test: as above
# [8] = target: HLA-A*26:01; test: IEDB peptide-MHC binding, purified MHC/competitive/fluorescence; filed as Kd, often an IC50 or EC50 that approximates it; ≥ and ≤ were set here for values at or beyond the usual limits of such assays
# [9] = target: HLA-B*46:01; test: as above; details: source organism: Clostridium botulinum B str. Eklund 17B (NRP)
# [10] = target: HLA-B*08:01; test: IEDB peptide-MHC binding, purified MHC/competitive/radioactivity; filed as Kd, often an IC50 or EC50 that approximates it; ≥ and ≤ were set here for values at or beyond the usual limits of such assays
# [11] = target: HLA-A*02:01; test: IEDB peptide-MHC binding, purified MHC/competitive/fluorescence; filed as Kd, often an IC50 or EC50 that approximates it; ≥ and ≤ were set here for values at or beyond the usual limits of such assays; details: source organism: Shigella boydii CDC 3083-94
# [12] = target: HLA-B*15:01; test: as above
# [13] = target: HLA-B*15:01; test: IEDB peptide-MHC binding, purified MHC/competitive/radioactivity; filed as Kd, often an IC50 or EC50 that approximates it; ≥ and ≤ were set here for values at or beyond the usual limits of such assays
# [14] = target: HLA-A*03:01; test: IEDB peptide-MHC binding, purified MHC/competitive/fluorescence; filed as Kd, often an IC50 or EC50 that approximates it; ≥ and ≤ were set here for values at or beyond the usual limits of such assays
# [15] = target: HLA-A*31:01; test: as above
# [16] = target: HLA-A*30:01; test: IEDB peptide-MHC binding, purified MHC/competitive/radioactivity; filed as Kd, often an IC50 or EC50 that approximates it; ≥ and ≤ were set here for values at or beyond the usual limits of such assays; details: source organism: Vaccinia virus WR
# [17] = target: HLA-A*32:01; test: as above
# [18] = target: HLA-B*51:01; test: IEDB peptide-MHC binding, purified MHC/competitive/fluorescence; filed as Kd, often an IC50 or EC50 that approximates it; ≥ and ≤ were set here for values at or beyond the usual limits of such assays; details: source organism: Yersinia pestis Nepal516
# [19] = target: HLA-A*03:01; test: IEDB peptide-MHC binding, purified MHC/competitive/radioactivity; filed as Kd, often an IC50 or EC50 that approximates it; ≥ and ≤ were set here for values at or beyond the usual limits of such assays; details: source organism: Vaccinia virus WR
# [20] = target: HLA-A*11:01; test: as above; details: source organism: Vaccinia virus WR
# [21] = target: HLA-A*31:01; test: as above; details: source organism: Vaccinia virus WR
# [22] = target: HLA-A*33:01; test: as above; details: source organism: Vaccinia virus WR
# [23] = target: HLA-A*68:01; test: as above; details: source organism: Vaccinia virus WR
# [24] = target: HLA-B*07:02; test: as above; details: source organism: Vaccinia virus WR
# [25] = target: HLA-B*35:01; test: as above; details: source organism: Vaccinia virus WR
# [26] = target: HLA-B*51:01; test: as above; details: source organism: Vaccinia virus WR
# [27] = target: HLA-B*53:01; test: as above; details: source organism: Vaccinia virus WR
# [28] = target: HLA-B*54:01; test: as above; details: source organism: Vaccinia virus WR
# [29] = target: HLA-A*03:01; test: IEDB peptide-MHC binding, purified MHC/direct/fluorescence; filed as Kd, often an IC50 or EC50 that approximates it; ≥ and ≤ were set here for values at or beyond the usual limits of such assays
# [30] = target: HLA-A*11:01; test: as above
# [31] = target: HLA-A*30:02; test: IEDB peptide-MHC binding, purified MHC/competitive/radioactivity; filed as Kd, often an IC50 or EC50 that approximates it; ≥ and ≤ were set here for values at or beyond the usual limits of such assays; details: source organism: Dengue virus 1 Brazil/97-11/1997
# [32] = target: HLA-A*24:02; test: as above; details: source organism: Dengue virus 4 Philippines/H241/1956
# [33] = target: HLA-A*01:01; test: as above; details: source organism: Dengue virus 3 Martinique/1243/1999
# [34] = source organism: Vaccinia virus WR
# [35] = source organism: Hepatitis C virus (isolate BK)
# [36] = source organism: Trypanosoma cruzi
# [37] = source organism: Escherichia coli 101-1
# [38] = source organism: Vaccinia virus Copenhagen
# [39] = source organism: Lassa virus GA391
# [40] = source organism: Dengue virus 2 Peru/IQT2913/1996
# [41] = source organism: Mycobacterium tuberculosis
# [42] = source organism: Dengue virus 1 Brazil/97-11/1997
# [43] = source organism: Escherichia coli O157:H7
# [44] = source organism: Yellow fever virus
# [45] = source organism: West Nile virus
# [46] = source organism: Dengue virus 4 Philippines/H241/1956
# [47] = source organism: Escherichia coli 536
# [48] = source organism: Dengue virus 3 Martinique/1243/1999
sequence,measurement,setting,value
AANCFGQHV,Kd,[1]; [34],21.8 nM
ASAIVLEFF,Kd,[2],28.2 nM
AVVRFRTHF,Kd,[1]; [34],191 nM
CVNGVCWTV,Kd,[3]; [35],1020 nM
same,Kd,[4]; [35],1040 nM
same,Kd,[5]; [35],2080 nM
same,Kd,[6]; [35],2670 nM
same,Kd,[7]; [35],948 nM
DLKDLEAHI,Kd,[3]; source organism: Homo sapiens,≥ 83400 nM
same,Kd,[6]; source organism: Homo sapiens,≥ 109000 nM
same,Kd,[7]; source organism: Homo sapiens,17600 nM
DVADLFPAQ,Kd,[8]; source organism: Mammarenavirus lassaense,1780 nM
FANYGFTLA,Kd,[3]; [36],1500 nM
same,Kd,[4]; [36],1980 nM
same,Kd,[5]; [36],46.2 nM
same,Kd,[6]; [36],0.447 nM
same,Kd,[7]; [36],1640 nM
FFKDGMAEV,Kd,[9],398 nM
FKVLDGSPI,Kd,[1]; [34],0.822 nM
FMASPENVI,Kd,[1]; [34],6.38 nM
FQSMHFTDM,Kd,[10]; [34],84.4 nM
same,Kd,[1]; [34],5.12 nM
FTFEWNGRI,Kd,[11],14.5 nM
same,Kd,[12]; source organism: Shigella boydii CDC 3083-94,≥ 20000 nM
GLYCYFTHL,Kd,[13]; [34],6.87 nM
GVFYRPLHF,Kd,[13]; [34],5.54 nM
HTFTAPIAK,Kd,[14]; [37],112 nM
same,Kd,[15]; [37],19.1 nM
IISSSTLYF,Kd,[13]; [38],1.06 nM
ISTKLSCHY,Kd,[13]; [34],17.5 nM
KMTRVFNKF,Kd,[16],15100 nM
same,Kd,[17]; [34],10600 nM
same,Kd,[10]; [34],10600 nM
same,Kd,[13]; [34],7560 nM
same,Kd,[1]; [34],0.431 nM
KMYACKNDM,Kd,[1]; [34],42.9 nM
LIRPKILSM,Kd,[10]; [34],0.548 nM
same,Kd,[13]; [34],10.4 nM
LLCKLSCAV,Kd,[13]; [34],416 nM
LLHGLDFSEV,Kd,[3]; [39],65.8 nM
same,Kd,[4]; [39],117 nM
same,Kd,[5]; [39],3.57 nM
same,Kd,[6]; [39],71.2 nM
same,Kd,[7]; [39],≥ 5000 nM
LLKICIKYF,Kd,[13]; [34],5230 nM
LLSRFFNMI,Kd,[17]; [34],714 nM
same,Kd,[10]; [34],1640 nM
same,Kd,[1]; [34],821 nM
LMVSGPNVV,Kd,[1]; [34],3.8 nM
LPFVWAPMV,Kd,[18],39.9 nM
LPRPDTRHL,Kd,[3]; [34],≥ 78100 nM
same,Kd,[4]; [34],≥ 77800 nM
same,Kd,[5]; [34],≥ 78100 nM
same,Kd,[6]; [34],18400 nM
same,Kd,[19],≥ 58200 nM
same,Kd,[20],≥ 77900 nM
same,Kd,[21],≥ 77900 nM
same,Kd,[22],≥ 77700 nM
same,Kd,[23],≥ 77700 nM
same,Kd,[7]; [34],≥ 76900 nM
MKYCSYQSF,Kd,[1]; [34],1.55 nM
NTIRNAASF,Kd,[8]; source organism: Bacillus thuringiensis serovar israelensis ATCC 35646,73.5 nM
NTYLFNILY,Kd,[3]; [34],946 nM
same,Kd,[4]; [34],1570 nM
same,Kd,[5]; [34],1550 nM
same,Kd,[6]; [34],6110 nM
same,Kd,[19],625 nM
same,Kd,[20],263 nM
same,Kd,[21],688 nM
same,Kd,[22],1480 nM
same,Kd,[23],722 nM
same,Kd,[7]; [34],7350 nM
same,Kd,[24],≥ 29200 nM
same,Kd,[25],10500 nM
same,Kd,[26],17700 nM
same,Kd,[27],5690 nM
same,Kd,[28],1430 nM
RKYGCGNMF,Kd,[1]; [34],1.25 nM
RLYSIFLIF,Kd,[17]; [38],6.87 nM
same,Kd,[10]; [38],15700 nM
same,Kd,[13]; [38],3.35 nM
same,Kd,[1]; [38],0.158 nM
RQMEGEGVF,Kd,[17]; [40],429 nM
same,Kd,[13]; [40],4.86 nM
RSADGSPPY,Kd,[29]; [41],2500 nM
same,Kd,[30]; [41],25.7 nM
same,Kd,[15]; source organism: Mycobacterium tuberculosis variant bovis BCG str. Pasteur 1173P2,≥ 20000 nM
RSQVGVGVF,Kd,[13]; [42],26 nM
RVIYPANQK,Kd,[29]; [43],35 nM
same,Kd,[30]; [43],6.9 nM
same,Kd,[15]; source organism: Escherichia coli O157:H7 str. Sakai,72.2 nM
SLNTSTLGF,Kd,[17]; [38],416 nM
same,Kd,[13]; [38],1.67 nM
same,Kd,[1]; [38],13.1 nM
SPVMSGNSY,Kd,[1]; [34],363 nM
SSMKGENVF,Kd,[1]; [34],47 nM
TINAVASRK,Kd,[30]; [44],4.3 nM
same,Kd,[15]; [44],801 nM
TLNHVLALK,Kd,[3]; [34],≥ 78100 nM
same,Kd,[4]; [34],≥ 77800 nM
same,Kd,[5]; [34],281 nM
same,Kd,[6]; [34],14100 nM
same,Kd,[19],2.47 nM
same,Kd,[20],1.28 nM
same,Kd,[21],36.1 nM
same,Kd,[22],656 nM
same,Kd,[23],4.17 nM
same,Kd,[7]; [34],≥ 76900 nM
same,Kd,[24],≥ 77500 nM
same,Kd,[25],10400 nM
same,Kd,[26],≥ 77500 nM
same,Kd,[27],≥ 78200 nM
same,Kd,[28],≥ 78100 nM
TMAHRKPTY,Kd,[31],2060 nM
same,Kd,[13]; [42],144 nM
VIGFLALAK,Kd,[29]; source organism: Amur virus,232 nM
same,Kd,[30]; source organism: Amur virus,12.6 nM
same,Kd,[15]; source organism: Orthohantavirus dobravaense,≥ 20000 nM
VLALLAFFR,Kd,[14]; [45],160 nM
same,Kd,[15]; [45],1080 nM
VLQSAANMY,Kd,[12]; source organism: Bacillus anthracis str. A0488,67.5 nM
VMKRYSAPF,Kd,[32],994 nM
same,Kd,[10]; [46],8.98 nM
same,Kd,[13]; [46],10.2 nM
VTVVAVPLR,Kd,[14]; [47],≥ 20000 nM
same,Kd,[15]; [47],107 nM
YLFNAIETM,Kd,[13]; [34],1.41 nM
YLHYYRIIR,Kd,[29]; [41],≥ 20000 nM
same,Kd,[15]; source organism: Mycobacterium tuberculosis H37Rv,245 nM
YSIPATLLV,Kd,[33],941 nM
same,Kd,[6]; [48],10.2 nM
same,Kd,[7]; [48],16.9 nM
